Data published in the DeepSol protein solubility set.

Assay: soluble on expression in E. coli; label from the status in PepcDB or PDB records

Sequence	soluble on expression in E. coli
SLTGAVDKLTLIHYNDVYNIDANSKSEPIGGAARFCTAVRSFSHLNPLVLFSGDAFSPSMLSTFTKGEQMIPVLNTVGTHCAVFGNHDFDHGLDILNEWVEKTNFPWLMSNVVDNETGRPLGGGKITHIMHHNEVKVGLIGLVEKEWLDTLPTIDPNEVTYIDFIKAGNQLADELHNQGCDIIIALTHMRTPNDIELAKHSGHIDLILGGHDHVYEILNIDDTHVIKSGTDFRQFSKIGISLNRNQNGKININVEKVDVNSTKYSEDSELKNELKKYSETIESKMDEVLGTFAVELDGRFSAIRTSETNLGNWICDVALAATGADCVIINSGTFRSDQIHPAGPFTMRDLINIIPMQDPLIVLEVTGKILHQALENSVSTYPKLEGRFPQIAGMSFVFDPTKKAGERVEPKLIRLGDEWLNLEQTYTLCVKSYIYGGCDGYNMFKECRVLMDDDAAPELGLAIQNHFKAIDVRLGK	soluble
SLTLNDKYPFTDEDQAIINSYKAVVDGVSALIGEHCEIVLHSLENIEHSAICIANGHNTNRQVGSPITDLALRSLRNMQSESVSKPYFTRAKGSVLMKSVTIAIRNKTQRIIGLLCININLDVPVSQFLQCFMLTEHTNETSSVNFANSVEDLVAQTIEKTIEEVNADRAVANNTKNRQIVLSLYEKGIFDIKDAINLVAERLDISRHTVYLYIRQIKQEQE	soluble
SLTPDSTAGSLHIDCPTGLAGDMLLAALLDLGVPLEVIKAPLARLGLKDMVRLDVEETRSGGLRGRRLNVVGLEPDPPHRHWAEIRDRLQNSSLEPKLLQTVLAVFTALAEAEATVHAQTPESVHFHEVGAIDALVDVVGVCAAIHHLAPHRISCAPPPAGHGSVTTAHGLLPVPVPAVLELARAHQVPLRHDPSLPEGELTTPTGLALVSVLAERFTAPPLFTPSAIGIGLGHRRLDRPNLVRLCLGQGESATLDLEARWQPLVVQEAWIDDASAEDIAWLLDRLRQAGALDVACQSLLMKKGRAGVAVTALVSTEQAPQLRRTWFEAGPSIGLRERQQGRWLLPRRAGTLSTPWGVLTAKQVRRPDGHCTVKPEADALQRLSQASGCSVADLRAAAQAASFESEEPWTW	not soluble
SLTTTDADWKPVADALGRSGKLGDNNTAYRINLPRNDLHITSYGVDIKPGLSLGGYAAFARYDNNETLLMGDLVITEEELPKVTDALQAHGIAQTALHKHLLQQDPPVWWTHIHGMGDAARLAQGLKAALDATTIGPPTPPPARQPPVDIDVAGVDQALGRKGTQDGGLMKYSIPRKDTIIEDGHVLPAVSLNLTTVINFQPVGRGRAAINGDFILIAPEVQEVIRAMRAGNITIVELHNHGLTEEPRLFYMHYWAVDDAVTLARALRPAMDATNLQS	not soluble
SLVGYSAVSQPSPASFLLGPTLPPAPSIAFRLWRPYSMTARITSVEALPYRLPLTSKLAWGAHSALSAAEHVLVRVTLSDGSVGVAEATPRPTIYGETPGSVTAILQHLEPALLGLDIADEAALNRVRGSVAGNHTARGALDMALWEARAASRGQSLFDTLLGPHERVRVSFILGIAPPAEMLAEAERVVAAGVRCLKVKVGRHAAQDLQVIAELRRRYGDDVQLYADSNETLTLEQAPDVLAAMREAGLMYVEEPLPARDLRARAALHAAGVLPIVADDSCFTPADLERELDFDTFDVLNVKTARNGFTDGLQMLRRAAEHGKRGMVGSQASTGLGTLHAALLSTQAEVTEPCELSFVLKLGDDLLNRPIEFQDGWLNVPELREHRLDEDKLARYRI	soluble
SLVTRVTLAPGVRVMVAPYPPFLLPLQGRLNCLYMRLRSPVVVPPGDSFSIELKVPFDIAVIASSKGRHTLIDFFPPGGVVPKMAVYGSNVEGLLCRFWRDEWRGPAASARLTIVNNADVQATVSRVVLPRRGLSMFYNPVTGGIAASPIRMSVRDIDSADVWLEEAEPGEGFIEVPLVERDRRLFEALGPLVPGRIAMIWGI	not soluble
SMIPEVQKPLHEQLWYHGAIPRAEVAELLVHSGDFLVRESQGKQEYVLSVLWDGLPRHFIIQSLDNLYRLEGEGFPSIPLLIDHLLSTQQPLTKKSGVVLHRAVPKDKWVLNHEDLVLGEQIGRGNFGEVFSGRLRADNTLVAVKSCRETLPPDLKAKFLQEARILKQYSHPNIVRLIGVCTQKQPIYIVMELVQGGDFLTFLRTEGARLRVKTLLQMVGDAAAGMEYLESKCCIHRDLAARNCLVTEKNVLKISDFGMSREEADGVYAASGGLRQVPVKWTAPEALNYGRYSSESDVWSFGILLWETFSLGASPYPNLSNQQTREFVEKGGRLPCPELCPDAVFRLMEQCWAYEPGQRPSFSTIYQELQSIRKRHR	soluble
SMITIKFDLNRYSCSWGAGGAFGGNRGLRPIPPEKGIFPLDHLHECDAEKKEYLGCLKSSAHKSEQCRHLSKKYLQCRMAKNLMAKQDMAELGFSGVKELDSTEDKNTESIEH	soluble
SMPAYACQRPSPLTHHNTLLSEALETLAEAAGFEANEGRLLSFSRAASVLKSLPCPVASLSQLHGLPYFGEHSTRVIQELLEHGTCEEVKQVRCSERYQTMKLFTQVFGVGVKTANRWYQEGLRTLDELREQPQRLTQQQKAGLQYYQDLSTPVRRADAEALQQLIEAAVRQTLPGATVTLTGGFRRGKLQGHDVDFLITHPEEGQEVGLLPKVMSCLQSQGLVLYHQYHRSHLADSAHNLRQRSSTMDVFERSFCILGLPQPQQAALAGALPPCPTWKAVRVDLVVTPSSQFPFALLGWTGSQFFERELRRFSRQEKGLWLNSHGLFDPEQKRVFHATSEEDVFRLLGLKYLPPEQRNA	soluble
SNAMKDVLAEYASRIVSAEEAVKHIKNGERVALSHAAGVPQSCVDALVQQADLFQNVEIYHMLCLGEGKYMAPEMAPHFRHITNFVGGNSRKAVEENRADFIPVFFYEVPSMIRKDILHIDVAIVQLSMPDENGYCSFGVSCDYSKPAAESAHLVIGEINRQMPYVHGDNLIHISKLDYIVMADYPIYSLAKPKIGEVEEAIGRNCAELIEDGATLQLGIGAIPDAALLFLKDKKDLGIHTEMFSDGVVELVRSGVITGKKKTLHPGKMVATFLMGSEDVYHFIDKNPDVELYPVDYVNDPRVIAQNDNMVSINSCIEIDLMGQVVSECIGSKQFSGTGGQVDYVRGAAWSKNGKSIMAIPSTAKNGTASRIVPIIAEGAAVTTLRNEVDYVVTEYGIAQLKGKSLRQRAEALIAIAHPDFREELTKHLRKRFG	soluble
SNAMLHYVHVGNKKSPNTLLFVHGSGCNLKIFGELEKYLEDYNCILLDLKGHGESKGQCPSTVYGYIDNVANFITNSEVTKHQKNITLIGYSMGGAIVLGVALKKLPNVRKVVSLSGGARFDKLDKDFMEKIYHNQLDNNYLLECIGGIDNPLSEKYFETLEKDPDIMINDLIACKLIDLVDNLKNIDIPVKAIVAKDELLTLVEYSEIIKKEVENSELKIFETGKHFLLVVNAKGVAEEIKNFI	soluble
SNAMQVITSVKEAKQIVKDWKSHQLSIGYVPTMGFLHDGHLSLVKHAKTQDKVIVSIFVNPMQFGPNEDFSSYPRDLERDIKMCQDNGVDMVFIPDATQMYLKNFSTYVDMNTITDKLCGAKRPGHFRGVCTVLTKFFNILNPDIVYMGQKDAQQCVVVRHMVDDLNFDLKIQICPIIREEDGLAKSSRNVYLSKEERKASLAISQSIFLAEKLVREGEKNTSKIIQAMKDILEKEKLIKIDYIELVDFNTMENIENITDNVLGAVAAFVGKTRLIDNFLVQGLK	soluble
SNAMSDSDAMTDPNAVSYSNAIVVLCTAPDEASAQNLAAQVLGEKLAACVTLLPGATSLYYWEGKLEQEYEVQLLFKSNTDHQQALLTYIKQHHPYQTPELLVLPVRDGDKDYLSWLNASLL	soluble
SNAMSELSYRRILLKLSGEALMGDGDYGIDPKVINRLAHEVIEAQQAGAQVALVIGGGNIFRGAGLAASGMDRVTGDHMGMLATVINALAMQDALEKLGAKVRVMSAIKINDVCEDFIRRRAIRHLEKGRIAIFAAGTGNPFFTTDSGAALRAIEIGADLLLKATKVDGVYDKDPKKHSDAVRYDSLTYDEVIMQGLEVMDTAAFALARDSDLPLRIFGMSEPGVLLRILHGAQIGTLVQGRS	soluble
SNGRADFREPNAQVSRPIPDIGGGYIPTEEEWRLFAECHEECFWFRSVPLAATSMLITQGLISKGILSSHPKYGSIPKLIFACIVGYFAGKLSYVKTCQEKFKKLENSPLGEALRSGELRRSLPPGHYTQKPKYDSNVSGQSSFGTSPAADNIEKETLPRYEPIPFSASMNESTPTGITDHIAQGPDPNLEDSPKRKSVTYEELRNKNRESYGVTLSHKTDPSVRPMQERGPQKEVKVNKYGDTWDE	soluble
SNRKKLQKLTDTLTKNCKHFNKFEVNCLIKLFYDLVGGVERQGLVVGLDRNAFRNILHVTFGMTDDMIMDRVFRGFDKDNDGCVNVLEWIHGLSLFLRGSLEEKMKYCFEVFDLNGDGFISKEEMFHMLKNSLLKQPSEEDPDEGIKDLVEITLKKMDHDHDGKLSFADYELAVREETLLLEAFGPCLPDPKSQMEFEAQVFKDPNEFNDM	soluble
SPEIMKDLSINFGKALDTCKKELDLPDSINEDFYKFWKEDYEITNRLTGCAIKCLSEKLEMVDADGKLHHGNAREFAMKHGADDAMAKQLVDLIHGCEKSIPPNDDRCMEVLSIAMCFKKEIHNLKWAPNMEVVVGEVLAEV	soluble
SPNATPRRPLQELRRAELVEIIVETEAQTGVSGINVAGGGKEGIFVRELREDSPAARSLSLQEGDQLLSARVFFENFKYEDALRLLQCAEPYKVSFCLKRTVPTGDLALRPGTVSGYEIKGPRAKVAKLNIQSLSPVKKKKMVPGALGVPADLAPVDVEFSFPKFSRLRRGLKAEAVKGPVPAAPARRRLQLPRLRVREVAEEAQAARLAAAAPPPRKAKVEAEVAAGARFTAPQVELVGPRLPGAEVGVPQVSAPKAAPSAEAAGGFALHLPTLGLGAPAPPAVEAPAVGIQVPQVELPALPSLPTLPTLPCLETREGAVSVVVPTLDVAAPTVGVDLALPGAEVEARGEAPEVALKMPRLSFPRFGARAKEVAEAKVAKVSPEARVKGPRLRMPTFGLSLLEPRPAAPEVVESKLKLPTIKMPSLGIGVSGPEVKVPKGPEVKLPKAPEVKLPKVPEAALPEVRLPEVELPKVSEMKLPKVPEMAVPEVRLPEVELPKVSEMKLPKVPEMAVPEVRLPEVQLLKVSEMKLPKVPEMAVPEVRLPEVQLPKVSEMKLPEVSEVAVPEVRLPEVQLPKVPEMKVPEMKLPKVPEMKLPEMKLPEVQLPKVPEMAVPDVHLPEVQLPKVPEMKLPEMKLPEVKLPKVPEMAVPDVHLPEVQLPKVPEMKLPKMPEMAVPEVRLPEVQLPKVSEMKLPKVPEMAVPDVHLPEVQLPKVCEMKVPDMKLPEIKLPKVPEMAVPDVHLPEVQLPKVSEIRLPEMQVPKVPDVHLPKAPEVKLPRAPEVQLKATKAEQAEGMEFGFKMPKMTMPKLGRAESPSRGKPGEAGAEVSGKLVTLPCLQPEVDGEAHVGVPSLTLPSVELDLPGALGLQGQVPAAKMGKGERAEGPEVAAGVREVGFRVPSVEIVTPQLPAVEIEEGRLEMIETKVKPSSKFSLPKFGLSGPKVAKAEAEGAGRATKLKVSKFAISLPKARVGAEAEAKGAGEAGLLPALDLSIPQLSLDAHLPSGKVEVAGADLKFKGPRFALPKFGVRGRDTEAAELVPGVAELEGKGWGWDGRVKMPKLKVSTAGQVVTEGHDAGLRMPPLGISLPQVELTGFGEAGTPGQQAQSTVPSAEGTAGYRVQVPQVTLSLPGAQVAGGELLVGEGVFKMPTVTVPQLELDVGLSREAQAGEAATGEGGLRLKLPTLGARARVGGEGAEEQPPGAERTFCLSLPDVELSPSGGNHAEYQVAEGEGEAGHKLKVRLPRFGLVRAKEGAEEGEKAKSPKLRLPRVGFSQSEMVTGEGSPSPEEEEEEEEEGSGEGASGRRGRVRVRLPRVGLAAPSKASRGQEGDAAPKSPVREKSPKFRFPRVSLSPKARSGSGDQEEGGLRVRLPSVGFSETGAPGPARMEGAQAAAV	soluble
